B1: TRIM63 (parent)
chain: FRCPTCRHEVIMDRHGVYGLQRNL
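Also: lentivirally expressed fusions sorted by FACS into six bins by GFP to DsRed ratio, PSI derived from sequencing read proportions per bin multiplied by bin number.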

Variants of: B1
Assay: protein stability index of a GFP-peptide fusion (GPS, HEK-293T) (PSI 1-6); higher = more stable
Details: c terminus: a fixed tail appended
In the case of FRCPTCRHEVIMDIHGVYGLQRNL, the protein stability index is reported as 1.96. Work on FRCPTCRHEVIMDRHGVYGLQRLL yielded a protein stability index of 1.7. FRCPTCRHEVIMDRHGVYGLQRVL gave a protein stability index of 2.96. For FRCPTCRHEVIMDRHGVYGLQRAL, the protein stability index was 1.79. FRCPTCRHEVIMDRHGVYGLQRSL showed a protein stability index of 2.14. In the case of FRCPTCRHEVIMDRHGVYGLQRWL, the protein stability index is reported as 2.79. Variant FRCPTCRHEVIMDRHGVYGLQRGL has a protein stability index of 2.82. In the case of FRCPTCRHEVIMDRHGVYGLQRYL, the protein stability index is reported as 1.25. With FRCPTCRHEVIMDRHGVYGLQRHL the protein stability index was 2.5. In the case of FRCPTCRHEVIMDRHGVYGLQRTL, the protein stability index is reported as 1.67. For FRCPTCRHEVIMDRHGVYGLQYNL, the protein stability index was 1.75. In the case of FRCPTCRHEVIMDRHGVYGLQCNL, the protein stability index is reported as 2.29. FRCPTCRHEVIMDRHGVYGLQSNL gave a protein stability index of 2.35. Variant FRCPTCRHEVIMDRHGVYGLQKNL has a protein stability index of 2.02. FRCPTCRHEVIMDRHGVYGLQVNL showed a protein stability index of 2.43. Work on FRCPTCRHEVIMDRHGVYGLQMNL yielded a protein stability index of 1.45. Work on FRCPTCRHEVIMDRHGVYGLQNNL yielded a protein stability index of 2.95. FRCPTCRHEVIMDRHGGYGLQRNL gave a protein stability index of 3.09. FRCPTCRHEVIMDRHGSYGLQRNL gave a protein stability index of 2.77. For FRCPTCRHEVIMDRHGFYGLQRNL, the protein stability index was 2.75. Work on FRCPTCRHEVIMDRHGCYGLQRNL yielded a protein stability index of 2.47. In the case of FRCPTCRHRVIMDRHGVYGLQRNL, the protein stability index is reported as 1.47. Variant FRCPTCRHLVIMDRHGVYGLQRNL has a protein stability index of 2.99. Work on FRCPTCRHNVIMDRHGVYGLQRNL yielded a protein stability index of 2.69. FRCPTCRHQVIMDRHGVYGLQRNL showed a protein stability index of 2.63. For FRCPTCRHDVIMDRHGVYGLQRNL, the protein stability index was 1.79. Work on FRCPTCRHAVIMDRHGVYGLQRNL yielded a protein stability index of 2.48. FRCPTCRHWVIMDRHGVYGLQRNL showed a protein stability index of 2.12. In the case of FRCPTCRHTVIMDRHGVYGLQRNL, the protein stability index is reported as 2.34. FRCPTCRHIVIMDRHGVYGLQRNL showed a protein stability index of 1.43. For FRCPTCRHYVIMDRHGVYGLQRNL, the protein stability index was 1.86. Work on FRCPTCRHMVIMDRHGVYGLQRNL yielded a protein stability index of 2.06. In the case of FRCPTCRHEVIMDRHGVYGIQRNL, the protein stability index is reported as 1.6. For FRCPTCRHEVIMDRHGVYGAQRNL, the protein stability index was 1.77. For FRCPTCRHEVIMDRHGVYGVQRNL, the protein stability index was 2.71. For FRCPTCRHEVIMDRHGVYGTQRNL, the protein stability index was 2.81. FRCPTCRHEVIMDRHGVYGPQRNL gave a protein stability index of 1.77. With FRCPTCNHEVIMDRHGVYGLQRNL the protein stability index was 3. Work on FRCPTCYHEVIMDRHGVYGLQRNL yielded a protein stability index of 1.94. With FRCPTCHHEVIMDRHGVYGLQRNL the protein stability index was 2.46. FRCPTCQHEVIMDRHGVYGLQRNL showed a protein stability index of 2.48. FRCPTCSHEVIMDRHGVYGLQRNL gave a protein stability index of 2.24. FRCPTCEHEVIMDRHGVYGLQRNL gave a protein stability index of 2.09. For FRCDTCRHEVIMDRHGVYGLQRNL, the protein stability index was 2.24. FRCYTCRHEVIMDRHGVYGLQRNL showed a protein stability index of 2.74. With FRCTTCRHEVIMDRHGVYGLQRNL the protein stability index was 3.2. With FRCHTCRHEVIMDRHGVYGLQRNL the protein stability index was 3.24. FRCETCRHEVIMDRHGVYGLQRNL gave a protein stability index of 2.16. FRCKTCRHEVIMDRHGVYGLQRNL gave a protein stability index of 2.67. FRCATCRHEVIMDRHGVYGLQRNL showed a protein stability index of 2.38. FRCPTCRHEVIMDRHRVYGLQRNL showed a protein stability index of 1.83. Work on FRCPTCRHEVIMDRHSVYGLQRNL yielded a protein stability index of 1.97. Variant FRCPTCRHEVIMDRHTVYGLQRNL has a protein stability index of 1.65. Work on FRCPTCRHEVIMDRHWVYGLQRNL yielded a protein stability index of 2.31. With FRCPTCRHEVIMDRHQVYGLQRNL the protein stability index was 2.33. With FRCPTCRHEVIMDRHFVYGLQRNL the protein stability index was 2.65. Variant FRCPTCRHEVIMDRHMVYGLQRNL has a protein stability index of 2.15. Variant FRCPTCRHEVIMDRHCVYGLQRNL has a protein stability index of 2.42. With FRCPTCRHEVIMDRHDVYGLQRNL the protein stability index was 2.47. FRCPTCRHEVCMDRHGVYGLQRNL showed a protein stability index of 2.02. FRCPTCRHEVRMDRHGVYGLQRNL showed a protein stability index of 3.19. Variant FRCPTCRHEVLMDRHGVYGLQRNL has a protein stability index of 2.18. In the case of FRCPTCRHEVTMDRHGVYGLQRNL, the protein stability index is reported as 2.48. Variant FRCPTCRHEVPMDRHGVYGLQRNL has a protein stability index of 2.05. With FRCPTCRHEVEMDRHGVYGLQRNL the protein stability index was 1.85. Work on FRAPTCRHEVIMDRHGVYGLQRNL yielded a protein stability index of 3.2. With FRYPTCRHEVIMDRHGVYGLQRNL the protein stability index was 3.25. In the case of FRQPTCRHEVIMDRHGVYGLQRNL, the protein stability index is reported as 1.78. For FRDPTCRHEVIMDRHGVYGLQRNL, the protein stability index was 1.7. FRMPTCRHEVIMDRHGVYGLQRNL gave a protein stability index of 4.35. Work on FRWPTCRHEVIMDRHGVYGLQRNL yielded a protein stability index of 2.18. With FRLPTCRHEVIMDRHGVYGLQRNL the protein stability index was 2.9. Work on FREPTCRHEVIMDRHGVYGLQRNL yielded a protein stability index of 2.04. FRCPTCRHEVIMDRRGVYGLQRNL showed a protein stability index of 1.48. Variant FRCPTCRHEVIMDRGGVYGLQRNL has a protein stability index of 2.12. FRCPTCRHEVIMDRKGVYGLQRNL showed a protein stability index of 2.16. Variant FRCPTCRHEVIMDRWGVYGLQRNL has a protein stability index of 2.11. Work on FRCPTCRHEVIMDRVGVYGLQRNL yielded a protein stability index of 3.01. With FRCPTCRHEVIMDRLGVYGLQRNL the protein stability index was 2.17. For FRCPTCRHEVIMDREGVYGLQRNL, the protein stability index was 2.43. With NRCPTCRHEVIMDRHGVYGLQRNL the protein stability index was 3.53. WRCPTCRHEVIMDRHGVYGLQRNL gave a protein stability index of 2.14. In the case of IRCPTCRHEVIMDRHGVYGLQRNL, the protein stability index is reported as 1.47. Variant VRCPTCRHEVIMDRHGVYGLQRNL has a protein stability index of 2.15. With FRCPTCRHEVIMDRHGVVGLQRNL the protein stability index was 1.67. For FRCPTCRHEVIMDRHGVHGLQRNL, the protein stability index was 1.87. Work on FRCPTCRHEVIMDRHGVMGLQRNL yielded a protein stability index of 3.62. Variant FRCPTCRHEVIMDRHGVDGLQRNL has a protein stability index of 1.73. Variant FRCPTCRHEVIMDRHGVRGLQRNL has a protein stability index of 2.08. FRCPTCRHEVIMDRHGVPGLQRNL showed a protein stability index of 2.23. FRCPTCRHEVIMDRHGVLGLQRNL gave a protein stability index of 2.54. With FRCPTCRHEVIMDRHGVAGLQRNL the protein stability index was 1.98. FRCPTCRHEVIMDRHGVCGLQRNL showed a protein stability index of 2.06. With FRCPTCRHEVIMDRHGVKGLQRNL the protein stability index was 1.98.

— the supplement of paper PMC10567573
